Among the data in PMC10639053 are response (Fnorm [1/1000]), fold affinity relative to BARD1 ARD-BRCTs (fold affinity vs BARD1 ARD-BRCTs) and affinity relative to BARD1^ARD-BRCTs, fold values, retold here.

The target of one data set is 6xHis-MBP–BARD1^425–777 (UniProt Q99728). In words: MST. To be noted: read at the highest titrant concentration (4000 nM 6xHis-MBP–BARD1ARD-BRCTs); 20 nM 5′ FAM-labelled nucleosomes; amplitude-normalised; mean of three …; parent: est. 10; read off a plot.
Data set [1] concerns the target human Flag-BRCA1^ΔExon11:6xHis-FL BARD1 complex, P38398-5;Q99728. In words: MST. Conditions: read at the highest titrant concentration (2000 nM Flag-BRCA1ΔExon11:6xHis–BARD1); 20 nM 5′ FAM-labelled nucleosomes; amplitude-normalised; mean of three …; parent: est. 14; read off a plot.
For data set [2], the system named is BRCA1 deltaExon11;BARD1 full length (human;human). In words: MST. To be noted: Kd in Table S2, not in material, EMSA: 50 mM Tris pH 7.5, 150 mM NaCl, 0.02% NP40, 0.1 mg/ml BSA, 10% glycerol, 1 mM DTT, 8% sucrose, on ice 1 h, MST: 50 mM HEPES pH 7.5, 150 mM NaCl.
The target of data set [3] is unmodified mono-nucleosome (human) (UniProt P0C0S8). In words: MST; 5' FAM-labelled nucleosomes (20 nM) with a dilution series of protein (0.122-4000 nM or 0.122-2000 nM), 50 mM HEPES pH 7.5, 150 mM NaCl, 0.1 mg/ml BSA, 10% glycerol, 0.02% NP40, 1 mM DTT, room temperature 30 min; one-site total binding fit.

For “unmodified mono-nucleosome (from UniProt P0C0S8;P33778;P68431;P62805) H2A:E61A; H2A:E91A; H2A:E92A; H2B:E105A”, the figures for the response (Fnorm [1/1000]) (with 6xHis-MBP–BARD1^425–777; in data set [1]) were 1.5 and 5.7, respectively.
In data set [2], unmodified mono-nucleosome yielded a fold affinity relative to BARD1 ARD-BRCTs (fold affinity vs BARD1 ARD-BRCTs) of 2.
Consider “human Flag-BRCA1^ΔExon11:6xHis-FL BARD1 complex (from UniProt P38398-5 1-721; Q99728 1-777)”, for which the affinity relative to BARD1^ARD-BRCTs, fold in data set [3] was determined as 2 fold.
